These results are taken from patent US20220380433A1.

Experiment [1] concerns the target H63 CAR (CD8 signal peptide-H63-human CD8 hinge region-human CD8 transmembrane region-human 4-1BB costimulatory domain-CD3zeta signaling domain), on H63 CAR-T lymphocytes. Description: flow cytometry; biotin-protein L and PE-streptavidin on H63 CAR-T lymphocytes. On the technique in general: A flow cytometer gives signals particle by particle.
The target in experiment [2] is H63 CAR as expressed from H63 CAR-2A-TMEM59, on H63 CAR-2A-TMEM59-T lymphocytes. In words: flow cytometry; biotin-protein L and PE-streptavidin on H63 CAR-2A-TMEM59-T lymphocytes.
Sequence of H63 CAR as expressed from H63 CAR-2A-TMEM59, on H63 CAR-2A-TMEM59-T lymphocytes (chain, as listed by the source): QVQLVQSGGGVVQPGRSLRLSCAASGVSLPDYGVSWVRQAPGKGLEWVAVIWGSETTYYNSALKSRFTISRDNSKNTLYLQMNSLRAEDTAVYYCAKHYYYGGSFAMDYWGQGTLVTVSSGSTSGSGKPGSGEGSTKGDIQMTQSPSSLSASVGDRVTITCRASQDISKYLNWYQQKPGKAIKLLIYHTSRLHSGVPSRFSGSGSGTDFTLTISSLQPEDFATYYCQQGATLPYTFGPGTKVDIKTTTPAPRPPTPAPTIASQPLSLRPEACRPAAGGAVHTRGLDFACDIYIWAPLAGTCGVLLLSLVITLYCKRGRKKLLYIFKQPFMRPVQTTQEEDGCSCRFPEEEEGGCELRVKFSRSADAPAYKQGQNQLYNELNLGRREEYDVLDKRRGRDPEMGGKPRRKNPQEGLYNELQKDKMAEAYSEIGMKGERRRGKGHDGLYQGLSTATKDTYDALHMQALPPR

Sequence of H63 CAR (CD8 signal peptide-H63-human CD8 hinge region-human CD8 transmembrane region-human 4-1BB costimulatory domain-CD3zeta signaling domain), on H63 CAR-T lymphocytes (chain, as listed by the source): as above

In the case of “biotin-protein L (ACROBIOSYSTEMS, RPL-P814R)”, the values for the CAR positive cells % (protein L-positive) in experiment [1] and in experiment [2] were 82.7% and 83.2%, respectively.
